Assay [1] has as its target T1, WT human CXCL12α (human, UniProt P48061-2 22-89, 15N-labelled in one NMR orientation; FITC in flow cytometry (Fig 6H)).
T1 construct: CXCL12 alpha, human, codon-optimised cDNA, released from the thioredoxin-His fusion by enterokinase; also called CXCL12 FITC; source: E. coli BL21(DE3), from inclusion bodies, purified (HisTrap, Heparin HP, enterokinase cleavage, Mono S); not shown: thioredoxin, N-terminal, cleaved; His tag, N-terminal, cleaved
The experiment in a line: NMR titration; 1H-15N HSQC, 15N-labelled protein with unlabelled partner (10 μM 15N-CXCL12 with 330 μM Gal-3 CRD; 30 μM 15N-Gal-3 CRD with 500 μM CXCL12; 30 μM 15N-CXCL12 with 500 μM Gal-3 CRD mutants), 20 mM sodium acetate pH 4.5, 4.5 mM lactose, 37°C. Particulars: both partners purified.

Assay [2] concerns the target T1, WT human CXCL12α. Description: far-Western, overlay or dot blot; solid-phase immunoassay: 100 ng of Gal-3 or Gal-3 CRD variants on nitrocellulose, 120 nM CXCL12 overnight, SA-HRP, densitometry (Appendix Fig S7). Particulars: both partners purified.

B1: Gal‐3 CRD mutant Q220E (domain or fragment, UniProt P17931 108-250, looked up)
chain: GAPAGPLIVPYNLPLPGGVVPRMLITILGTVKPNANRIALDFQRGNDVAFHFNPRFNENNRRVIVCNTKLDNNWGREERQSVFPFESGKPFKIQVLVEPDHFKVAVNDAHLLEYNHRVKKLNEISKLGISGDIDLTSASYTMI
notes: The limits are those printed for the wild-type CRD
For B1, the “CXCL12 sequence-averaged Δδ” value in assay [1] worked out at 0.0073 ppm.

B2: Gal‐3 CRD mutant E185A (domain or fragment, UniProt P17931 108-250, looked up)
chain: GAPAGPLIVPYNLPLPGGVVPRMLITILGTVKPNANRIALDFQRGNDVAFHFNPRFNENNRRVIVCNTKLDNNWGREARQSVFPFESGKPFKIQVLVEPDHFKVAVNDAHLLQYNHRVKKLNEISKLGISGDIDLTSASYTMI
notes: as for B1
As to B2, in assay [2], the binding result is recorded as “binds”.

B3: Gal‐3 CRD mutant N222A (domain or fragment, UniProt P17931 108-250, looked up)
chain: GAPAGPLIVPYNLPLPGGVVPRMLITILGTVKPNANRIALDFQRGNDVAFHFNPRFNENNRRVIVCNTKLDNNWGREERQSVFPFESGKPFKIQVLVEPDHFKVAVNDAHLLQYAHRVKKLNEISKLGISGDIDLTSASYTMI
notes: as for B1
On to B3, for which, in assay [2], the binding result was “binds”.

B4: Gal‐3 CRD mutant N160A (domain or fragment, UniProt P17931 108-250, looked up)
chain: GAPAGPLIVPYNLPLPGGVVPRMLITILGTVKPNANRIALDFQRGNDVAFHFAPRFNENNRRVIVCNTKLDNNWGREERQSVFPFESGKPFKIQVLVEPDHFKVAVNDAHLLQYNHRVKKLNEISKLGISGDIDLTSASYTMI
notes: as for B1
In the case of B4, in assay [2], the binding result is “binds”.

B5: Gal‐3 CRD mutant H217A (domain or fragment, UniProt P17931 108-250, looked up)
chain: GAPAGPLIVPYNLPLPGGVVPRMLITILGTVKPNANRIALDFQRGNDVAFHFNPRFNENNRRVIVCNTKLDNNWGREERQSVFPFESGKPFKIQVLVEPDHFKVAVNDAALLQYNHRVKKLNEISKLGISGDIDLTSASYTMI
notes: as for B1
In the case of B5, the “CXCL12 sequence-averaged Δδ” value in assay [1] was 0.0048 ppm.

B6: Gal‐3 CRD mutant Q220K (domain or fragment, UniProt P17931 108-250, looked up)
chain: GAPAGPLIVPYNLPLPGGVVPRMLITILGTVKPNANRIALDFQRGNDVAFHFNPRFNENNRRVIVCNTKLDNNWGREERQSVFPFESGKPFKIQVLVEPDHFKVAVNDAHLLKYNHRVKKLNEISKLGISGDIDLTSASYTMI
notes: as for B1
As to B6, in assay [1], the “CXCL12 sequence-averaged Δδ” value worked out at 0.0036 ppm.
